{"source": "patent US20240272170A1", "about": "(QUANTUM SI, published 2024)", "binders": {"B1": {"name": "PS1165 (other)", "chain": "MGLENSLETLRFSISNLSMQTHAARMRTFMYWPSSVPVQPEQLASAGFYYVGRNDDVKCFCCDGGLRCWESGDDPWVEHAKWFPRCEFLIRMKGQEFVDEIQGRYPHLLEQLLSG", "notes": "alanine recognizer"}, "B2": {"name": "PS557 (other)", "chain": "MPTAASATESAIEDTPAPARPEVDGRTKPKRQPRYHVVLWNDDDHTYQYVVVMLQSLFGHPPERGYRLAKEVDTQGRVIVLTTTREHAELKRDQIHAFGYDRLLARSKGSMKASIEAEE", "notes": "tag of the purified construct not specified; also called wild-type protein; WT"}, "B3": {"name": "PS557 (other)", "chain": "B2 chain", "notes": "Natural ClpS parent protein; also called WT; wild-type protein"}, "B4": {"name": "PS961 (designed binder)", "chain": "B2 chain with N41D, Q55R, E63S, L68M, V72M, Y100R", "notes": "PS557 with N41D, Q55R, E63S, L68M, V72M, Y100R; His/biotinylation tag of the assay construct is not specified; also called Planctomycetes ClpS variant"}}, "key": {"[1]": {"biological_target": "peptide with N-terminal AK (lysine peptide of Example 12)", "test": "single-molecule dynamic sequencing on chip"}, "[2]": {"biological_target": "peptide with N-terminal AK{acetyl} (acetyl-lysine peptide of Example 12)", "test": "single-molecule dynamic sequencing on chip"}, "[3]": {"biological_target": "T1, labeled peptide X…-FITC with N-terminal valine (FITC on the C-terminal Lys)", "T1 construct": "also called VA peptide; valine peptide", "test": "fluorescence polarization; text of paragraph 337"}, "[4]": {"biological_target": "T2, LA Peptide (fluorescence polarization)", "T2 peptide": "LAKLDEESILKQK(FITC)", "test": "fluorescence polarization, FITC peptide titrated with protein"}, "[5]": {"biological_target": "T3, IA Peptide (fluorescence polarization)", "T3 peptide": "IAKLDEESILKQK(FITC)", "test": "fluorescence polarization, FITC peptide titrated with protein"}, "[6]": {"biological_target": "T4, AA Peptide (fluorescence polarization), AAKLDEESILKQ{LYS(FITC)}", "T4 peptide": "AAKLDEESILKQK(FITC)", "test": "fluorescence polarization, FITC peptide titrated with protein"}, "[7]": {"biological_target": "T5, MA peptide (Octet assay of PS557 variants)", "T5 construct": "Peptide coated on the Octet sensor", "test": "Octet (BLI), peptide on sensor, response after 200 s association", "description": "(§1) In the high-throughput assay, Octet sensors are coated with the peptide of interest and dipped in buffer containing the purified protein. An approximation of relative binding can be obtained by comparing the response after 200 seconds for each protein. Each protein has approximately the same molecular mass and is used at the same concentration, so ranking the proteins by response level in this assay gives an approximation of which proteins have improved binding. Studying the on and off-rate can also give insight into the mechanism of binding."}, "[8]": {"biological_target": "T6, IA peptide (Octet assay of PS557 variants)", "T6 construct": "Peptide coated on the Octet sensor", "test": "Octet (BLI), peptide on sensor, response after 200 s association", "description": "as §1"}, "[9]": {"biological_target": "T7, FA peptide (Octet assay of PS557 variants)", "T7 construct": "Peptide coated on the Octet sensor", "test": "Octet (BLI), peptide on sensor, response after 200 s association", "description": "as §1"}, "[10]": {"biological_target": "T8, WA peptide (Octet assay of PS557 variants)", "T8 construct": "Peptide coated on the Octet sensor", "test": "Octet (BLI), peptide on sensor, response after 200 s association", "description": "as §1"}, "[11]": {"biological_target": "T9, YA peptide (Octet assay of PS557 variants)", "T9 construct": "Peptide coated on the Octet sensor", "test": "Octet (BLI), peptide on sensor, response after 200 s association", "description": "as §1"}, "[12]": {"biological_target": "T10, AA peptide (Octet assay of PS557 variants)", "T10 construct": "Peptide coated on the Octet sensor", "test": "Octet (BLI), peptide on sensor, response after 200 s association", "description": "(§2) In the high-throughput assay, Octet sensors are coated with the peptide of interest and dipped in buffer containing the purified protein. […] Studying the on and off-rate can also give insight into the mechanism of binding."}, "[13]": {"biological_target": "T11, VA peptide (Octet assay of PS557 variants)", "T11 construct": "Peptide coated on the Octet sensor", "test": "Octet (BLI), peptide on sensor, response after 200 s association", "description": "as §2"}, "[14]": {"biological_target": "T12, LA peptide (Octet assay of PS557 variants)", "T12 construct": "Peptide coated on the Octet sensor", "test": "Octet (BLI), peptide on sensor, response after 200 s association", "description": "as §2"}, "[15]": {"biological_target": "T5, MA peptide (Octet assay of PS557 …)", "test": "Octet (BLI), peptide on sensor, response after 200 s association", "description": "as §2", "remark": "listed apart in the source"}, "[16]": {"biological_target": "T6, IA peptide (Octet assay of PS557 …)", "test": "Octet (BLI), peptide on sensor, response after 200 s association", "description": "as §2", "remark": "listed apart in the source"}, "[17]": {"biological_target": "T7, FA peptide (Octet assay of PS557 …)", "test": "Octet (BLI), peptide on sensor, response after 200 s association", "description": "as §2", "remark": "listed apart in the source"}, "[18]": {"biological_target": "T13, … after cleavage to N-terminal leucine (LAFAYPDDD) (not fully specified (C-terminus); also: C-terminal azidolysine linked to DNA-streptavidin)", "T13 construct": "N-terminus exposed by aminopeptidases", "T13 peptide": "LAFAYPDDD", "test": "single-molecule dynamic sequencing on chip"}, "[19]": {"biological_target": "T14, … after cleavage to N-terminal leucine (LIFAYPDDD) (not fully specified (C-terminus); also: C-terminal azidolysine linked to DNA-streptavidin)", "T14 construct": "N-terminus exposed by aminopeptidases", "T14 peptide": "LIFAYPDDD", "test": "single-molecule dynamic sequencing on chip"}, "[20]": {"biological_target": "T15, … after cleavage to N-terminal leucine (LVFAYPDDD) (not fully specified (C-terminus); also: C-terminal azidolysine linked to DNA-streptavidin)", "T15 construct": "N-terminus exposed by aminopeptidases", "T15 peptide": "LVFAYPDDD", "test": "single-molecule dynamic sequencing on chip"}, "[21]": {"biological_target": "T16, … after cleavage to N-terminal leucine (LMFAYPDDD) (not fully specified (C-terminus); also: C-terminal azidolysine linked to DNA-streptavidin)", "T16 construct": "first population of traces, methionine not oxidized", "T16 peptide": "LMFAYPDDD", "test": "single-molecule dynamic sequencing on chip"}, "[22]": {"biological_target": "T17, RLMoFAYPDDD after cleavage to N-terminal leucine (LMoFAYPDDD) (not fully specified (C-terminus); printed as LMoFAYPDDD; also: C-terminal azidoLys linked to DNA-streptavidin)", "T17 construct": "second population of traces, methionine oxidized", "T17 peptide": "L[Met(O)]FAYPDDD", "test": "single-molecule dynamic sequencing on chip"}, "[23]": {"biological_target": "T18, synthetic peptide LRLAFAYPDDDK (not fully specified (residue 12))", "T18 construct": "also called QP707", "T18 peptide": "LRLAFAYPDDDK-NH2", "test": "single-molecule dynamic sequencing on chip"}, "[24]": {"biological_target": "T19, synthetic peptide LCitLAFAYPDDDK", "T19 construct": "also called QP789", "T19 peptide": "L[Cit]LAFAYPDDDK", "test": "single-molecule dynamic sequencing on chip"}, "[25]": {"biological_target": "T20, … after cleavage to N-terminal leucine (LTFIAYPDDD)", "T20 construct": "N-terminus exposed by aminopeptidases", "T20 peptide": "LTFIAYPDDD", "test": "single-molecule dynamic sequencing on chip"}, "[26]": {"biological_target": "T21, RLpTFIAYPDDD after cleavage to N-terminal leucine (LpTFIAYPDDD)", "T21 construct": "N-terminus exposed by aminopeptidases", "T21 peptide": "L[pT]FIAYPDDD[Lys(N3)]", "test": "single-molecule dynamic sequencing on chip"}, "[27]": {"biological_target": "T22, target peptide Met-Ala-Lys-Leu (MAKL)", "T22 peptide": "MAKL", "test": "purified protein:peptide complex, X-ray crystallography"}, "[28]": {"biological_target": "T23, target peptide Ala-Ala-Lys-Leu (AAKL)", "T23 peptide": "AAKL", "test": "purified protein:peptide complex, X-ray crystallography"}, "[29]": {"biological_target": "T24, labeled peptide XAKLDEESILKQK-FITC with N-terminal methionine", "T24 construct": "also called MA peptide", "T24 peptide": "MAKLDEESILKQK(FITC)", "test": "fluorescence polarization titration, FITC peptide (FIG. 9D)", "method": "(§3) Binding affinity was measured by polarization using a labeled peptide. The polarization response and total intensity measurements were carried out at 20° C. on a microplate fluorometer with 480 nm excitation and 530 nm emission. […] Multiple analyses were performed at increasing recognizer concentration at a fixed concentration of a target peptide to obtain a titration curve. An equilibrium polarization response at each concentration was plotted and fit to calculate the KD."}, "[30]": {"biological_target": "T1, labeled peptide X…-FITC with N-terminal …", "test": "fluorescence polarization titration, recognizer 0-4000 nM, labeled peptide fixed", "method": "as §3"}, "[31]": {"biological_target": "T25, labeled peptide X…-FITC with N-terminal leucine (FITC on the C-terminal Lys)", "T25 construct": "the sentence itself names only the N-terminal residue; also called LA peptide", "test": "fluorescence polarization titration, recognizer 0-5000 nM, labeled peptide fixed", "method": "as §3"}, "[32]": {"biological_target": "T26, labeled peptide XAKLDEESILKQK-FITC with N-terminal isoleucine", "T26 construct": "also called IA peptide", "T26 peptide": "IAKLDEESILKQK(FITC)", "test": "fluorescence polarization titration, recognizer 0-5000 nM, labeled peptide fixed", "method": "as §3"}}, "note": "Positions count from the first letter of the chain named. Numbers in names are those of the source. Where two headings read alike, the source gives them in different places. Non-standard residues stand in square brackets, D forms with d. No end group written: not given here. *: point of attachment. FITC = O=C1OC2(c3ccc(O)cc3Oc3cc(O)ccc32)c2ccc(NC(=S)*)cc21; Lys(N3) = [N-]=[N+]=NCCCC[C@H](N)C(=O)O; pT = C[C@@H](OP(=O)(O)O)[C@H](N)C(=O)O; Met(O) = CS(=O)CC[C@H](N)C(=O)O; Cit = NC(=O)NCCC[C@H](N)C(=O)O"}
{"binder": "B1", "values": [{"measurement": "RS mean pulse duration (PD)", "setting": "[1]", "value": 1.3, "unit": "s"}, {"measurement": "RS mean pulse duration (PD)", "setting": "[2]", "value": 2.2, "unit": "s"}]}
{"binder": "B2", "values": [{"measurement": "Kd", "setting": "[3]", "value": 1170, "unit": "nM"}]}
{"binder": "B3", "values": [{"measurement": "Kd", "setting": "[4]", "value": 52, "unit": "nM"}, {"measurement": "Kd", "setting": "[5]", "value": 289, "unit": "nM"}, {"measurement": "Kd", "setting": "[6]", "value": 10000, "unit": "nM"}, {"measurement": "Octet response", "setting": "[7]", "value": 1.68, "unit": "nm"}, {"measurement": "Octet response", "setting": "[8]", "value": 8.79, "unit": "nm"}, {"measurement": "Octet response", "setting": "[9]", "value": 0.0096, "unit": "nm"}, {"measurement": "Octet response", "setting": "[10]", "value": 0.0049, "unit": "nm"}, {"measurement": "Octet response", "setting": "[11]", "value": 0.0431, "unit": "nm"}, {"measurement": "Octet response", "setting": "[12]", "value": 0.612, "unit": "nm"}, {"measurement": "Octet response", "setting": "[13]", "value": 4.8, "unit": "nm"}, {"measurement": "Octet response", "setting": "[14]", "value": 7.16, "unit": "nm"}, {"measurement": "Octet response", "setting": "[15]", "value": 1.95, "unit": "nm"}, {"measurement": "Octet response", "setting": "[16]", "value": 7.2, "unit": "nm"}, {"measurement": "Octet response", "setting": "[17]", "value": 0.634, "unit": "nm"}]}
{"binder": "B4", "values": [{"measurement": "median pulse duration (PD)", "setting": "[18]", "value": 1.29, "unit": "s"}, {"measurement": "median pulse duration (PD)", "setting": "[19]", "value": 2.22, "unit": "s"}, {"measurement": "median pulse duration (PD)", "setting": "[20]", "value": 4.21, "unit": "s"}, {"measurement": "median pulse duration (PD)", "setting": "[21]", "value": 0.86, "unit": "s"}, {"measurement": "median pulse duration (PD)", "setting": "[22]", "value": 0.35, "unit": "s"}, {"measurement": "median pulse duration (PD)", "setting": "[23]", "value": 0.43, "unit": "s"}, {"measurement": "median pulse duration (PD)", "setting": "[24]", "value": 0.78, "unit": "s"}, {"measurement": "RS mean pulse duration (PD)", "setting": "[25]", "value": 1.2, "unit": "s"}, {"measurement": "RS mean pulse duration (PD)", "setting": "[26]", "value": 0.3, "unit": "s"}, {"measurement": "binding result", "setting": "[27]", "value": "binds"}, {"measurement": "binding result", "setting": "[28]", "value": "binds"}, {"measurement": "Kd", "setting": "[29]", "value": 947, "unit": "nM"}, {"measurement": "Kd", "setting": "[30]", "value": 144, "unit": "nM"}, {"measurement": "Kd", "setting": "[31]", "value": 55, "unit": "nM"}, {"measurement": "Kd", "setting": "[32]", "value": 68, "unit": "nM"}]}
